For test [1], the target named is dynamitin (p50) subunit of dynactin, endogenous bovine (bovine) (UniProt Q3ZCF0). Description: co-sedimentation.
Test [2] deals with p62 subunit of dynactin (bovine). Description: ion exchange chromatography.
Test [3] addresses p150^Glued subunit of dynactin (bovine). Description: co-sedimentation.

Data on 6 substances can be found in paper PMC2174220.

Chain of p62 subunit of dynactin (bovine) (Q9QUR2 whole entry): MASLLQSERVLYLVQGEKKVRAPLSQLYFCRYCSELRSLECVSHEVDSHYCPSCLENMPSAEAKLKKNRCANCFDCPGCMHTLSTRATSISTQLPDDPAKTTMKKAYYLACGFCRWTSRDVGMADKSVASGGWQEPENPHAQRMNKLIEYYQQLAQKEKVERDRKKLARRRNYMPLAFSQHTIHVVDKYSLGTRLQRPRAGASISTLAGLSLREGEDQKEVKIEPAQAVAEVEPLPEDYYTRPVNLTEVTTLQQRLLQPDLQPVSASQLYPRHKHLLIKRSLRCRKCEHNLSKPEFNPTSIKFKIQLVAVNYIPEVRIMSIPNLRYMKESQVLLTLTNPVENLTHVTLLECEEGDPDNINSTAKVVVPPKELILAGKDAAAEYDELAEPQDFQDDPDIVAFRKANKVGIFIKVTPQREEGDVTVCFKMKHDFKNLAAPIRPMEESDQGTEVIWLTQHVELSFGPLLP

“Arp1, actin-related protein of the dynactin minifilament (natural protein)”: the stoichiometry N (Arp1 per dynamitin) in test [1] worked out at 1.97.
Turning to “Arp11, novel actin-related protein of the dynactin pointed-end complex (from UniProt Q3ZBD2 1-417) (natural protein)”, the stoichiometry N in test [2] (scale: Arp11 per 1 p62) amounted to 1.
As for “dynamitin (p50) subunit of dynactin, endogenous bovine (from UniProt Q3ZCF0 1-403) (natural protein)”, in test [3] (scale: dynamitin per 2 p150), the stoichiometry N amounted to 2.
Substance “p24 subunit of dynactin (from UniProt Q0P5A1 1-186) (natural protein)” yielded a stoichiometry N (p24 per 2 p150^Glued) in test [3] of 2. Further, the stoichiometry N in test [3] (scale: p24 per 2 p150) turned out to be 1.
For the substance “p25 subunit of dynactin (from UniProt Q9QZB9 1-182) (natural protein)”, the stoichiometry N in test [2] (scale: p25 per 1 p62) came out at 1.
For the substance “p27 subunit of dynactin (from UniProt Q148G7 1-190) (natural protein)”, the stoichiometry N in test [2] (scale: p27 per 1 p62) stood at 1.
